The record followed here is article PMC4569737, “Involvement of a eukaryotic-like ubiquitin-related modifier in the proteasome pathway of the archaeon Sulfolobus acidocaldarius” (Nature Communications, 2015).

Data set [1] concerns the molecule itself. The data set can be described thus: SEC-MALS; 100 μl protein complex at 2 mg/ml, Superdex 200 10/300 Increase GL, 20 mM Tris (pH 8.0), 300 mM NaCl, 25 °C.
Data set [2] concerns the molecule itself. The data set can be described thus: negative-stain transmission electron microscopy; purified 20S complexes at 0.035 mg/ml on carbon-coated grids, 2% uranyl acetate.

B1: Saci0656 PAN (proteasome-activating nucleotidase) regulatory ATPase of S. acidocaldarius (enzyme, UniProt F2Z6H9 1-396, looked up)
chain: MFGDVDSYKNRENNNNYDETLVKLLEEKIEALTKEIDKLRQDLNWYKTELEKLLAPPYIEATILDILPDGKVIVRSSSGPNLVVNVATNVDVSKLKPGMSVALSQRGSTIIDILPNREDIIVKSFELIEKPNIHYSDIGGLEDQINELREVVELPLKNKKLFEELGIEPPKGVLLYGPPGTGKTMLAKAVAAESNATFIHVVASEFAQKFVGEGARIVREVFELARKKAPSIIFIDELDAIAARRIDIGTSGEREIQRTLMQLLAEIDGFKALDNVKIIAATNRIDILDPAILRPGRFDRLIEVPLPDEKGRKEIFKIYLQRMRINENDKLNYDLIAQLTDGFSGADIKNVCTEAGYMAIREGRESIKFQDIIRAIDKIKKKNLRKAINTRTEKYL
notes: ORF amplified from genomic DNA; also called PAN ATPase; PAN regulatory ATPase; source: E. coli Rosetta (DE3) pLysS, purified (details in the Supplementary Methods)
In the case of B1, in data set [1], the “stoichiometry N” value was 6.

B2: Saci0613 20S proteasome α-subunit, untagged (natural protein, S. acidocaldarius, UniProt Q4JB24 1-242, looked up)
chain: MALGPAAMGYDRAITIFSPDGSLYQVDYAFEAVKRGWTTLGVKTKSGVVLLAEKRKATQLLDVDGIEKIFMLDDHVGCTFAGLASDGRILIDYARSQALQHRLIYDEPISIEYLTKVISDVKQAYTQHGGVRPFGVALIVGGIDKGKQPKLLMTEPSGQFMPYYAVAIGQGGYTATEYLEKNYKEDLDIQSTILLALRALMATLKPGEKLNYSSVEIGYADVDSGTFKKLTTEERSDLLQKI
notes: 20S proteasome α-subunit, S. acidocaldarius DSM639, Saci0613; also called Saci0613 α; 0613 α-subunit; source: E. coli Rosetta (DE3) pLysS, co-expressed with β-subunit(s); in heat-clarified lysate, and purified as part of the complex (Ni-NTA IMAC, size exclusion chromatography)
For the protein B2, in data set [2], the binding result is “binds”.

B3: Saci0662ΔN, N-terminally truncated Saci0662 β-subunit (without the pro-peptide), His-tagged (domain or fragment, S. acidocaldarius, UniProt Q4JAY3 7-195, looked up)
chain: TAIGIKTKDGVVLAAERRLSYGDFVLSKSARKVFKLGRFGIAGAGIVGDIQTLTRIMNVEIKYYEMYNSRKISARAAAKLLSVILYQNKVLPYISELLFGGVDEDGPKLFILDPIGSLIEDSYAAVGSGARVAIGVLEAEYNESLTSEAAKELAIKSMKSAVERDVMSGDGIDILIINKNNIYEDFIKI
notes: source: E. coli Rosetta (DE3) pLysS, co-expressed with Saci0613 (with or without Saci0909ΔN); in heat-clarified lysate, and purified as part of the complex (Ni-NTA IMAC, size exclusion chromatography); not shown: His tag, C-terminal, kept
For the protein B3, in data set [2], the binding result is “binds”.
